The values below come from patent publication US20050064507A1, “Determining kinase specificity” (priority 2003, published 2005).

One test deals with T1, PKC-theta (Homo sapiens, UniProt Q04759).
T1 construct: His-tag; made in house; host or cells: baculovirus-infected Sf9 cells
Description: In vitro kinase assay: peptide phosphorylation by PKC-theta. The format is biochemical. The settings on record: for PKC theta phosphorylation: normalized to best substrate. An outline of the steps: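 Recombinant human PKC-theta, expressed in baculovirus-infected Sf9 cells and purified on a nickel chelating column, was incubated with biotinylated peptides, 100 μM ATP containing ^32P-gamma ATP, and PKC buffer with CaCl2, MgCl2, phosphatidyl serine and PMA at 30° C. Reactions were stopped with ATP/EDTA. Peptides were captured on streptavidin-coated plates, and phosphorylation was normalized to the best substrate.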

The test system of another test is PKC. The experiment in a line: In vitro phosphorylation by PKC (average of isoforms alpha, epsilon, delta, theta). The settings on record: for PKC average: average of PKC-alpha, -epsilon, -theta, normalized to best substrate; for average (phosphorylation by PKC-theta, -delta, -epsilon, -alpha): average over PKC-theta, -epsilon and -alpha at 10 and 1 uM peptide, relative to best substrate. The format is biochemical.

T1 sequence (Q04759 whole entry): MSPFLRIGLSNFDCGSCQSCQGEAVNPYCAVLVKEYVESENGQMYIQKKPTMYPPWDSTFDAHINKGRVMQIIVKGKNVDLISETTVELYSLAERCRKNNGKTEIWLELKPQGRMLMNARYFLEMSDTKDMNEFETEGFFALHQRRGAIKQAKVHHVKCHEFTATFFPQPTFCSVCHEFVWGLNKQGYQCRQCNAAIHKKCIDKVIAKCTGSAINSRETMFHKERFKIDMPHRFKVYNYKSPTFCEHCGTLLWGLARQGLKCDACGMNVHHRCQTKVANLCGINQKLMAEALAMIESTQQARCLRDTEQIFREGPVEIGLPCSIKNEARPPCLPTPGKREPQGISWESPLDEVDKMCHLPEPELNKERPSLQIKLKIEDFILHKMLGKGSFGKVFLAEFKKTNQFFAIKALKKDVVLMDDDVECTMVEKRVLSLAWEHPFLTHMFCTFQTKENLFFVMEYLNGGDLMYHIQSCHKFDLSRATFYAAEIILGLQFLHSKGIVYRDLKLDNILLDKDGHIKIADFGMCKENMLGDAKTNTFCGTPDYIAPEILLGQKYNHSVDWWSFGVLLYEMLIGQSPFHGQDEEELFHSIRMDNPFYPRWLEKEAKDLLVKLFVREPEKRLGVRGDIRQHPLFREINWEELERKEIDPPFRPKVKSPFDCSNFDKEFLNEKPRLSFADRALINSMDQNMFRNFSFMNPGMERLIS

Consider 81 (KRERKTSSKSSVRKRR) [compound 81], for which, in the test with PKC-theta, the PKC theta phosphorylation is recorded as 46%. For the same substance, the PKC average in the test on PKC worked out at 56%.

For the substance 87 (RQGKRKTSIKRDTVNPL) [compound 87], in the test with PKC-theta, the PKC theta phosphorylation was 65%. For the same substance, in the test with PKC, the PKC average is recorded as 47%.

With 88 (KKPFKLSGLSFKRNRKE) [compound 88], in the test with PKC-theta, the PKC theta phosphorylation was found to be 38%. For the same substance, the PKC average in the test with PKC was determined as 43%.

For 91 (VHYTSKDTLRKRHYWR) [compound 91], the PKC theta phosphorylation in the test with PKC-theta came out at 10%. Also, the PKC average with PKC was found to be 40%.

With 97 (KKRSSKKEASMKKVVRP) [compound 97], in the test with PKC-theta, the PKC theta phosphorylation was 31%. Further, in the test on PKC, the PKC average stood at 28%.

In the case of 98 (AGPLRKSSLKKGGRL) [compound 98], the PKC theta phosphorylation with PKC-theta is 22%. For the same substance, the PKC average in the test with PKC is listed as 27%.

Regarding “148 (RELEQLKAEYLERRASRRRA) [compound 148]”, the “phosphorylation by PKC theta” value with PKC-theta (peptide concentration 1 uM) and with PKC-theta (peptide concentration 10 uM) was 34 each time. Further, the “average (phosphorylation by PKC-theta, -delta, -epsilon, -alpha)” value with PKC stood at 26.

Consider 149 (RVVQSVKHTKRKSSTVMK) [compound 149], for which the “phosphorylation by PKC theta” value with PKC-theta (peptide concentration 1 uM) is recorded as 13; with PKC-theta (peptide concentration 10 uM), 14. The “average (phosphorylation by PKC-theta, -delta, -epsilon, -alpha)” value with PKC is reported as 25.

Regarding “150 (VDPFYEMLAARKKRISVKKK) [compound 150]”, the “phosphorylation by PKC theta” value with PKC-theta (peptide concentration 1 uM) and with PKC-theta (peptide concentration 10 uM) was 35 throughout. In the test with PKC, the “average (phosphorylation by PKC-theta, -delta, -epsilon, -alpha)” value was determined as 24.

Regarding “151 (PQNSLKASNRKKKRTSFKRK) [compound 151]”, the “phosphorylation by PKC theta” value was 25 in the test with PKC-theta (peptide concentration 1 uM) and 19 with PKC-theta (peptide concentration 10 uM). Moreover, the “average (phosphorylation by PKC-theta, -delta, -epsilon, -alpha)” value in the test on PKC is listed as 24.

For the substance “152 (DLIEGRKGAQIVKRASLKRG) [compound 152]”, the “phosphorylation by PKC theta” value in the test with PKC-theta (peptide concentration 1 uM) was determined as 31; in the test with PKC-theta (peptide concentration 10 uM) it was 30. Further, the “average (phosphorylation by PKC-theta, -delta, -epsilon, -alpha)” value in the test on PKC worked out at 23.

As to “153 (TYLLPDKSRQGKRKTSIKRD) [compound 153]”, the “phosphorylation by PKC theta” value was determined as 22 with PKC-theta (peptide concentration 1 uM) and 18 in the test with PKC-theta (peptide concentration 10 uM). Moreover, the “average (phosphorylation by PKC-theta, -delta, -epsilon, -alpha)” value with PKC was determined as 23.
